Key:
[1] = target: T1, Endonuclease V (EcEndoV), wild-type (Escherichia coli, UniProt P68739 1-223); assay: EMSA; EMSA: 25 mM sodium phosphate pH 6.5, 50-300 mM NaCl (500 mM in Fig. S17E), 1 mM DTT, 5 mM MgCl2, 30 min on ice, 2 pmol RNA in 10 ul, 12% native gel in TBE at room temperature; NMR: 25 mM sodium phosphate pH 6.5, 150 mM NaCl, 5 mM MgCl2, 1 mM DTT, 5% D2O, 50 uM RNA, 288 K; details: protein: recombinant; tags: N-terminal His-tag removed with TEV protease; single strand
T1 sequence: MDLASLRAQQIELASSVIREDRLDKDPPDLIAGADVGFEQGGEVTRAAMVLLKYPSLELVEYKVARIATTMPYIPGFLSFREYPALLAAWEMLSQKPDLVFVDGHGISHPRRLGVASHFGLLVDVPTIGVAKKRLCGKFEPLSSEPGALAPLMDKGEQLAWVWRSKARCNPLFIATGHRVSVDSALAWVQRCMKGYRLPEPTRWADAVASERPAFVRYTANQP

[2] = target: T1, Endonuclease V (EcEndoV), wild-type; assay: NMR imino line broadening; 5 mM Mg2+, 150 mM NaCl, 288 K, 1:1; backbone interaction, non-specific; EMSA: 25 mM sodium phosphate pH 6.5, 50-300 mM NaCl (500 mM in Fig. S17E), 1 mM DTT, 5 mM MgCl2, 30 min on ice, 2 pmol RNA in 10 ul, 12% native gel in TBE at room temperature; NMR: 25 mM sodium phosphate pH 6.5, 150 mM NaCl, 5 mM MgCl2, 1 mM DTT, 5% D2O, 50 uM RNA, 288 K; details: protein: recombinant; tags: N-terminal His-tag removed with TEV protease; 20-mer duplex, residues 1-40

| Binder | binding result [1] | binding result [2] |
| --- | --- | --- |
| CCUCGGAGUAUUUGUCCAGU (ssRNA) [ssRNA substrate(s) without inosine] | no binding | – |
| A-RNA (non-edited 20-mer dsRNA) (dsRNA) RNA 1: ACUGGACAAAUACUCCGAGG RNA 2: CCUCGGAGUAUUUGUCCAGU | – | binds |

From article PMC12199146, “Unique conformational dynamics and protein recognition of A-to-I hyper-edited dsRNA”
